# Results taken from patent US20200216495A1 (ADRX, published 2020).
# Where “and” joins values, the source holds several entries; their conditions need not be identical. Equal entries are not always repeated. Square brackets hold non-standard residues; d marks the D form. Ends that are not written are not given here. dCit = NC(=O)NCCC[C@@H](N)C(=O)O; dNle = CCCC[C@@H](N)C(=O)O
# Target: Ac-VQIINK-NH2 (SEQ ID NO: 23) (N-terminal acetyl (Ac); C-terminal amide (NH2))
# Test: cell-based or functional assay
row,Binder,VQIINK Inhibition IC50
1,[dW][dN][dL][dK][dV][dR][dW] [wnlkvrw],0.41 µm
2,[dL][dK][dI][dNle][dI][dH][dY] [lkiuihy],0.26 µm
3,[dL][dK][dI][dE][dI][dH][dY] [lkieihy],0.65 µm
4,[dL][dK][dI][dY][dI][dH][dY] [lkiyihy],0.17 µm
5,[dW][dE][dL][dK][dV][dR][dW] [welkvrw],0.26 µm

# Target: Tau40 P301L protein (human)
# Test: cell-based or functional assay
row,Binder,"IC50, Tau40 assay (ThT)"
1,[dF][dK][dL][dK][dL][dR][dW] [fklklrw (PEPTIDE ID NO: 413)],1050 nM
2,[dF][dL][dK][dI][dR][dI][dH][dY] [flkirihy (PEPTIDE ID NO: 247)],1040 nM
3,[dF][dK][dL][dR][dL][dR][dH][dW] [fklrlrhw (PEPTIDE ID NO: 123)],1070 nM
4,[dK][dL][dK][dI][dR][dI][dH][dY] [klkirihy (PEPTIDE ID NO: 243)],1010 nM
5,[dL][dK][dI][dR][dI][dH][dL][dH] [lkirihlh (PEPTIDE ID NO: 240)],1000 nM
6,[dL][dK][dI][dR][dI][dH][dY][dL] [lkirihyl (PEPTIDE ID NO: 193)],650 nM
7,[dL][dK][dI][dK][dL][dR][dH][dY] [lkiklrhy (PEPTIDE ID NO: 144)],1090 nM
8,[dF][dK][dL][dK][dI][dK][dW] [fklkikw (PEPTIDE ID NO: 132)],1080 nM and 1100 nM
9,[dL][dK][dI][dR][dI][dH][dY] [lkirihy (PEPTIDE ID NO: 245)],1040 nM

# Further lines, results first:
row,"IC50, Tau40 assay (ThT)",Binder
1,1000 nM,[dL][dR][dI][dR][dI][dH][dY][dH] [lririhyh (PEPTIDE ID NO: 239)]
2,580 nM,[dW][dR][dL][dR][dI][dH][dM] [wrlrihm (PEPTIDE ID NO: 453)]
3,1030 nM,[dL][dK][dI][dR][dI][dCit][dY] [lkirizy (PEPTIDE ID NO: 244)]
4,1000 nM,[dW][dR][dL][dR][dV][dR][dW][dW] [wrlrvrww (PEPTIDE ID NO: 238)]
5,1010 nM,[dL][dK][dL][dR][dI][dR][dH][dH] [lklrirhh (PEPTIDE ID NO: 415)]
6,1010 nM,[dL][dK][dL][dH][dL][dH][dF][dH] [lklhlhfh (PEPTIDE ID NO: 434)]
7,1040 nM,[dW][dR][dM][dR][dI][dH][dW] [wrmrihw (PEPTIDE ID NO: 246)]
8,1010 nM,[dM][dR][dL][dR][dI][dH][dW] [mrlrihw (PEPTIDE ID NO: 242)]
9,1080 nM,[dW][dR][dL][dK][dV][dA][dW] [wrlkvaw (PEPTIDE ID NO: 248)]
10,1010 nM,[dW][dR][dL][dK][dE][dR][dW][dW] [wrlkerww (PEPTIDE ID NO: 241)]
